Results on two molecules are retold here after article PMC3044157, “The Nuclear Guanine Nucleotide Exchange Factors Ect2 and Net1 Regulate RhoB-Mediated Cell Death after DNA Damage” (PLoS ONE, 2011).

The target in this experiment is T1, GST-RhoB(17A), nucleotide free RhoB mutant (UniProt P62745 1-196, G17A).
T1 construct: RhoB, small GTPase of the Rho family, with the nucleotide-free mutation G17A; also called nucleotide-free mutant of RhoB; nucleotide-free Rho mutants (G17A)
Briefly: pull-down; 20 ug purified GST-RhoB(17A) on glutathione-sepharose beads, incubated with clarified MCF-7 lysates for 60 min at 4 C; cells mock-treated or irradiated with 5 Gy (also 400 uM 5-FU for 72 h); immunoblot for the GEFs. Particulars: one partner purified.

Where only a bound is given, the exact number is not on record here.

T1 sequence (P62745 whole entry G17A): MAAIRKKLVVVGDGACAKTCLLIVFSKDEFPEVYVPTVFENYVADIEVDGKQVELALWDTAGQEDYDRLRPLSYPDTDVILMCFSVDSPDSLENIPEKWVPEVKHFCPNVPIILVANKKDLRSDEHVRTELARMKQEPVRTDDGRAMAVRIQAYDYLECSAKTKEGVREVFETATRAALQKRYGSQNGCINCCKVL

B1: epithelial cell transforming sequence 2 (Ect2) (natural protein, human (endogenous in MCF-7 and HeLa), UniProt Q9H8V3 1-914, looked up)
chain: MAENSVLTSTTGRTSLADSSIFDSKVTEISKENLLIGSTSYVEEEMPQIETRVILVQEAGKQEELIKALKTIKIMEVPVIKIKESCPGKSDEKLIKSVINMDIKVGFVKMESVEEFEGLDSPEFENVFVVTDFQDSVFNDLYKADCRVIGPPVVLNCSQKGEPLPFSCRPLYCTSMMNLVLCFTGFRKKEELVRLVTLVHHMGGVIRKDFNSKVTHLVANCTQGEKFRVAVSLGTPIMKPEWIYKAWERRNEQDFYAAVDDFRNEFKVPPFQDCILSFLGFSDEEKTNMEEMTEMQGGKYLPLGDERCTHLVVEENIVKDLPFEPSKKLYVVKQEWFWGSIQMDARAGETMYLYEKANTPELKKSVSMLSLNTPNSNRKRRRLKETLAQLSRETDVSPFPPRKRPSAEHSLSIGSLLDISNTPESSINYGDTPKSCTKSSKSSTPVPSKQSARWQVAKELYQTESNYVNILATIIQLFQVPLEEEGQRGGPILAPEEIKTIFGSIPDIFDVHTKIKDDLEDLIVNWDESKSIGDIFLKYSKDLVKTYPPFVNFFEMSKETIIKCEKQKPRFHAFLKINQAKPECGRQSLVELLIRPVQRLPSVALLLNDLKKHTADENPDKSTLEKAIGSLKEVMTHINEDKRKTEAQKQIFDVVYEVDGCPANLLSSHRSLVQRVETISLGEHPCDRGEQVTLFLFNDCLEIARKRHKVIGTFRSPHGQTRPPASLKHIHLMPLSQIKKVLDIRETEDCHNAFALLVRPPTEQANVLLSFQMTSDELPKENWLKMLCRHVANTICKADAENLIYTADPESFEVNTKDMDSTLSRASRAIKKTSKKVTRAFSFSKTPKRALRRALMTSHGSVEGRSPSSNDKHVMSRLSSTSSLAGIPSPSLVSLPSFFERRSHTLSRSTTHLI
notes: Ect2, nuclear guanine nucleotide exchange factor, endogenous in human cancer cell lines, detected by immunoblot (sc-1005); source: endogenous, MCF-7 lysate; endogenous, HeLa lysate
Regarding B1, the “fold increase in binding after IR over mock-treated” value was ≥ 5 fold.

B2: neuroepithelial transforming gene 1 (Net1) (natural protein, human (endogenous in MCF-7 and HeLa), UniProt Q7Z628 1-596, looked up)
chain: MEPELAAQKQPRPRRRSRRASGLSTEGATGPSADTSGSELDGRCSLRRGSSFTFLTPGPNWDFTLKRKRREKDDDVVSLSSLDLKEPSNKRVRPLARVTSLANLISPVRNGAVRRFGQTIQSFTLRGDHRSPASAQKFSSRSTVPTPAKRRSSALWSEMLDITMKESLTTREIRRQEAIYEMSRGEQDLIEDLKLARKAYHDPMLKLSIMSEEELTHIFGDLDSYIPLHEDLLTRIGEATKPDGTVEQIGHILVSWLPRLNAYRGYCSNQLAAKALLDQKKQDPRVQDFLQRCLESPFSRKLDLWSFLDIPRSRLVKYPLLLKEILKHTPKEHPDVQLLEDAILIIQGVLSDINLKKGESECQYYIDKLEYLDEKQRDPRIEASKVLLCHGELRSKSGHKLYIFLFQDILVLTRPVTRNERHSYQVYRQPIPVQELVLEDLQDGDVRMGGSFRGAFSNSEKAKNIFRIRFHDPSPAQSHTLQANDVFHKQQWFNCIRAAIAPFQSAGSPPELQGLPELHEECEGNHPSARKLTAQRRASTVSSVTQVEVDENAYRCGSGMQMAEDSKSLKTHQTQPGIRRARDKALSGGKRKETLV
notes: Net1, nuclear guanine nucleotide exchange factor, endogenous in human cancer cell lines, detected by immunoblot; source: endogenous, MCF-7 lysate; endogenous, HeLa lysate
For the molecule B2, the “fold increase in binding after IR over mock-treated” value is ≥ 5 fold.
